US20120202747A1 (TORU MIYAZAKI, published 2012)

Assays:
[1] = biological target: T1, mouse CD36 fused with a FLAG-tag at its C terminus, overexpressed on HEK293 cells (mouse, UniProt Q08857 1-472); experiment: confocal microscopy of HEK293 cells overexpressing mouse CD36-FLAG, cultured with mouse AIM for 3 hours
T1 construct: whole, on cells; also called CD36-FLAG; not shown: C-terminal FLAG tag
Description: CD36 is a twice-transmembrane-type molecule, is expressed on adipocytes and macrophages, and is involved in intracellular internalization of many molecules including fatty acids, LDL, and the like. Thus, HEK293 cells in which mouse CD36 fused with a FLAG-tag at its C terminus was overexpressed were produced, and the cells were cultured with mouse AIM for 3 hours. Subsequently, the cells were collected, stained using an anti-AIM antibody and an anti-CD36 antibody, and observed under a confocal microscope.

[2] = biological target: T2, endogenous FAS (fatty acid synthase) in mouse adipocytes (mouse, UniProt P19096 1-2504); experiment: precipitation of endocytosed HA-tagged rAIM from lysates of mouse adipose tissue with an anti-HA antibody, Western blot for FAS
T2 construct: also called cytosolic FAS
T2 sequence (P19096 whole entry): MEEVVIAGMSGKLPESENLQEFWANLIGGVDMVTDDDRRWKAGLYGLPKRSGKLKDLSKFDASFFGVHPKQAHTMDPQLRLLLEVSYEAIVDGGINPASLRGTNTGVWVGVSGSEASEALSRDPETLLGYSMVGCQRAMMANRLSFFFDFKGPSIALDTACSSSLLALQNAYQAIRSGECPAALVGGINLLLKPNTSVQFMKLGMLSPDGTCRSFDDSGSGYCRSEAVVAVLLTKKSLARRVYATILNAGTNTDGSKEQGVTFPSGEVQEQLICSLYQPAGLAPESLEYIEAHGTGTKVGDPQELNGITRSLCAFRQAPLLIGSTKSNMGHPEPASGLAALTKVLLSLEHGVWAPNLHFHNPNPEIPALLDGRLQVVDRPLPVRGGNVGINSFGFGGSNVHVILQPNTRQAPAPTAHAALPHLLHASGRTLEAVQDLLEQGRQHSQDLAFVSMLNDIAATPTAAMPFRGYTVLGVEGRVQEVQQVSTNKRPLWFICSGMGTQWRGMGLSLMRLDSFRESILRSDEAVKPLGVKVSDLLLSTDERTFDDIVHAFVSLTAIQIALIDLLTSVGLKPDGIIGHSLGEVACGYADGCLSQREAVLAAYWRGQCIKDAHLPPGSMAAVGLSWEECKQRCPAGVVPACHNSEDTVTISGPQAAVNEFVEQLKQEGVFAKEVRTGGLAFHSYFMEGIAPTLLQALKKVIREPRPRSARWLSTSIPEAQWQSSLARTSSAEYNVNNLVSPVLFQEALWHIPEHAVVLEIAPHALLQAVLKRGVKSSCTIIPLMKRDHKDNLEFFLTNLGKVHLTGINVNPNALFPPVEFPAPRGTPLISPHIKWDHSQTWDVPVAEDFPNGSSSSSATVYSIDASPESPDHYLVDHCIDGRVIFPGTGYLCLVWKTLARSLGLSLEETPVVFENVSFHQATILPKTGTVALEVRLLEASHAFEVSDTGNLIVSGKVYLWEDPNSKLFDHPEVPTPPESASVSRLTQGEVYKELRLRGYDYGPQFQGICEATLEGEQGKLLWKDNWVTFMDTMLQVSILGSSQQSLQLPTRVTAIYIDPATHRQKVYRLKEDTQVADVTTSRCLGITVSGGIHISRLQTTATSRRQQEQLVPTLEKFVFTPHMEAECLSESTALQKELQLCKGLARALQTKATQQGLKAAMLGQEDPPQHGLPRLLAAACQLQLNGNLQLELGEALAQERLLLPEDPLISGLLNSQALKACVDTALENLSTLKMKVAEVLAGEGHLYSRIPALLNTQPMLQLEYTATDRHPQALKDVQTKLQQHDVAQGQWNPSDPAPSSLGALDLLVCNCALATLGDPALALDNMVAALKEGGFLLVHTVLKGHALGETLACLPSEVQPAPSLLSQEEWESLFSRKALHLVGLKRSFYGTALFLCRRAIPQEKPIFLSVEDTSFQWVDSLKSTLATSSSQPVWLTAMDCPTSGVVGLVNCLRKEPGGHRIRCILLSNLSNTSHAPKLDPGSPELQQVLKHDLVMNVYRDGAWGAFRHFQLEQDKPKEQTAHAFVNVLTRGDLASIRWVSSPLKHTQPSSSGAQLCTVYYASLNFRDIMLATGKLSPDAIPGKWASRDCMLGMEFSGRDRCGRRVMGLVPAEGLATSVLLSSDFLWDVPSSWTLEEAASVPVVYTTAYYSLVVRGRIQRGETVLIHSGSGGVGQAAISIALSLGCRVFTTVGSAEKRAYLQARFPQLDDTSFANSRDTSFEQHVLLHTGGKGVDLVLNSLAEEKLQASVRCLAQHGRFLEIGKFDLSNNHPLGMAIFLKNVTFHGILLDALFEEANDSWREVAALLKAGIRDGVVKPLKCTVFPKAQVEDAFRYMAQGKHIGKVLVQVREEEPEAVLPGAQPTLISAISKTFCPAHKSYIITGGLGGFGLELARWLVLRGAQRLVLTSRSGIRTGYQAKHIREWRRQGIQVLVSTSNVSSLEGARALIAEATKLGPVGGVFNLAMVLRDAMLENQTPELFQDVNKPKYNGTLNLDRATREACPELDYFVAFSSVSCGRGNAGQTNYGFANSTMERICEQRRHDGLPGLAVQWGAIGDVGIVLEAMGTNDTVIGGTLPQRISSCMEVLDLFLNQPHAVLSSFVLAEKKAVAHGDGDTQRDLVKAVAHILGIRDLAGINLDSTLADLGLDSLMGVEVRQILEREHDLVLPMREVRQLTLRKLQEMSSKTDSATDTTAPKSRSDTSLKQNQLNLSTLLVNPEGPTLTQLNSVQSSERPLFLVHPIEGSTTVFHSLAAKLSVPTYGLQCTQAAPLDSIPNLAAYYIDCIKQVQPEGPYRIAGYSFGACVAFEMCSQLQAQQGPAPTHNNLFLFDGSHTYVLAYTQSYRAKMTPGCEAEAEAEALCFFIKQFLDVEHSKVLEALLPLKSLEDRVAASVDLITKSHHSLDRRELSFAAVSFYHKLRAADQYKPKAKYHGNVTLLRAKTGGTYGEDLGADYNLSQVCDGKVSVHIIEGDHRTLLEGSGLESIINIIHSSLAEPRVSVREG
Description: Further, the endocytosed rAIM was precipitated using lysates derived from those adipose tissues to examine whether endogenous FAS was co-precipitated or not. That is, the presence of FAS in the precipitate was analyzed by Western blotting using HA-tagged rAIM and an anti-HA antibody.

T1 sequence (Q08857 whole entry, the tested form may be a part): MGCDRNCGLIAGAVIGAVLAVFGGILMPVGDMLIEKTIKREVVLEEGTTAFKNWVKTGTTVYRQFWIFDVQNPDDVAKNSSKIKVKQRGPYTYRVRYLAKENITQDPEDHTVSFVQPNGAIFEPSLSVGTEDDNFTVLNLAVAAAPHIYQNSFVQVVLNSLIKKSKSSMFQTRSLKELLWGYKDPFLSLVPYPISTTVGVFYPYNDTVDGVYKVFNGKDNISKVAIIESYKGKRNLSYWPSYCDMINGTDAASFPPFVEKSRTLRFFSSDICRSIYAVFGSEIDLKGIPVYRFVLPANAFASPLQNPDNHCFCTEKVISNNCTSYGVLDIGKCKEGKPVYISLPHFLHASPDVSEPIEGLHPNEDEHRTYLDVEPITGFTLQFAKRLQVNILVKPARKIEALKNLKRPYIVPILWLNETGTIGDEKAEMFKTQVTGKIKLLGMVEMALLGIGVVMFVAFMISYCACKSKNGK

Binder	binding result [1]	binding result [2]
recombinant mouse AIM protein (other, no cleavage site is stated; also called Mouse rAIM; rAIM) ESPTKVQLVGGAHRCEGRVEVEHNGQWGTVCDDGWDRRDVAVVCRELNCGAVIQTPRGASYQPPASEQRVLIQGVDCNGTEDTLAQCELNYYVFDCSHEEDAGAQCENPDSDLLFIPEDVRLVDGPGHCQGRVEVLHQSQWSTVCKAGWNLQVSKVVCRQLGCGRALLTYGSCNKNTQGKGPIWMGKMSCSGQEANLRSCLLSRLENNCTHGEDTWMECEDPFELKLVGGDTPCSGRLEVLHKGSWGSVCDDNWGEKEDQVVCKQLGCGKSLHPSPKTRKIYGPGAGRIWLDDVNCSGKEQSLEFCRHRLWGYHDCTHKEDVEVICTDFDV	binds	–
mouse AIM (apoptosis inhibitor of macrophage) fused with an HA-tag (other, also called HA-AIM; AIM tagged with HA; not shown: HA tag) ESPTKVQLVGGAHRCEGRVEVEHNGQWGTVCDDGWDRRDVAVVCRELNCGAVIQTPRGASYQPPASEQRVLIQGVDCNGTEDTLAQCELNYYVFDCSHEEDAGAQCENPDSDLLFIPEDVRLVDGPGHCQGRVEVLHQSQWSTVCKAGWNLQVSKVVCRQLGCGRALLTYGSCNKNTQGKGPIWMGKMSCSGQEANLRSCLLSRLENNCTHGEDTWMECEDPFELKLVGGDTPCSGRLEVLHKGSWGSVCDDNWGEKEDQVVCKQLGCGKSLHPSPKTRKIYGPGAGRIWLDDVNCSGKEQSLEFCRHRLWGYHDCTHKEDVEVICTDFDV	–	binds
